Measured values published in patent US9662404B2, “Compositions and methods for the delivery of molecules into live cells” (The Texas A&M University System, priority 2013, dated 2017).
Ends that are not written are not given here.

Tests used:
[1] = target: EGFP (Aequorea victoria, UniProt P42212, F64L/H231L/S65T); conditions: EGFP 1 μM, dTAT 5 μM, excitation 488 nm
Procedure: Fluorescence emission spectra were obtained using an SLM-8000C fluorometer upgraded with the phoenix package (ISS, Champaign, Ill.) and Vinci v.1.6 PC software (ISS). The experiments were conducted using a quartz cuvette at room temperature. The samples were excited at 488 nm (slit width=1 mm) and the fluorescence emission was scanned from 500 to 650 nm (slit width=1 mm). All samples (EGFP (1 μM) and dTAT (5 μM)) were prepared using nrL-15.

[2] = system: HeLa cells; assay: Cell proliferation, MTT assay; assay type: cell-based; conditions: 5 μM, 1 h; up to 36 h after incubation
Procedure: (§1) In order to determine cells that had compromised plasma membranes, cells were treated with SYTOX® Green (SYTOX® Blue in some cases) and Hoechst (Invitrogen, Carlsbad, Calif.). SYTOX® dyes are cell-impermeable and stain the DNA of cells with compromised plasma membranes. The Hoechst dye is cell permeable and stains the DNA of all cells. Images were acquired using the green and blue filter. The green and blue images were used to count cells with a blue or green stained nucleus. Image J was used to count the dead (green) and total cells (blue). Cytotoxicity was determined from the ratio of SYTOX® Green positive cells/total number of cells. An MTT-assay was performed to determine the effect of the peptide on cell proliferation. Cells were seeded in a 6-well dish, grown and washed as described above. One well from the dish was incubated with 5 μM dTAT at 37° C. for 1 h. A second well was left untreated and served as control. […] Cells were trypsinized and seeded into 96-well dishes containing 200 μL of DMEM. The cells were then allowed to attach to the bottom of the dish for 12 h. […] After the incubation each sample was mixed and the absorbance at 600 nm was measured. […] A second control consisted of cells treated with the delivery peptide but to which no MTT was added to subtract the contribution of TMR from the measured absorbance. The absorbance of the negative control was subtracted from all samples.

[3] = system: HeLa cells; assay: Delivery of peptides inside live cells, internalization assessed by fluorescence microscopy; assay type: cell-based; conditions: for cellular localization of peptide fluorescence: 1 h incubation
Procedure: The TAT, dTAT and acTAT peptides were incubated for 1 h with several cell lines and internalization was assessed by fluorescence microscopy. […] See also FIG. 5. […] The cell lines HeLa, NIH 3T3, COLO 316 and HaCaT were incubated with 5 μM dTAT for 1 h, washed and imaged. […] After imaging, cells were incubated at 37° C. in a humidified atmosphere containing 5% CO2 for 24 h, washed and imaged again. […] Cell viability was assessed by exclusion of the cell-impermeable nuclear stain SYTOX® Blue at both 1 h and 24 h time point. […] Inverted monochrome (black=fluorescence signal, white-no signal) fluorescence images were made of HeLa cells incubated with 10 or 20 μM of TAT for 1 h.
Live cells from different lines (HeLa, HaCat, NIH 3T3) were grown in Dulbecco's […] (DMEM) (Fisher) supplemented with 10% fetal bovine serum (FBS) (Fisher) and kept at 37° C. in a humidified atmosphere containing 5% CO2. Cells were then seeded in 8-well dishes so that the cells were 80%-90% confluent after 48 h. […] The media (nrL-15) used for incubation lacks cysteine to avoid reduction of the disulfide bond of dTAT. Cells were then incubated with different concentrations of the acTAT, TAT, or dTAT at 37° C. for 1 h. […] Images were collected using a Rolera-MGI Plus back-illuminated EMCCD camera (Qimaging, Surrey, BC, Canada). Images were acquired using bright field imaging and three standard fluorescence filter sets: CFP (Ex=436±10 nm/Em=480±20 nm), RFP (Ex=560±20 nm/Em=630±35 nm), and FITC (Ex=488±10 nm/Em=520±20 nm). The fluorescence intensities of different cells were measured with the SlideBook 4.2 software (Olympus, Center Valley, Pa.) and the average fluorescence intensity was determined for each condition. It has been previously reported that CPPs labeled with fluorophores such as TMR can photosensitize membranes and cause endosomal leakage upon light irradiation. See, Srinivasan, D. et al., “Conjugation to the cell-penetrating peptide TAT potentiates the photodynamic effect of carboxytetramethylrhodamine,” PloS one 6:e17732 (2011) and Muthukrishnan, N., et al., “Synergy Between Cell-Penetrating Peptides and Singlet Oxygen Generators Leads to Efficient Photolysis of Membranes,” Photochemistry and Photobiology 89:625-630 (2012), each incorporated herein by reference in its entirety. […] First, all delivery experiments were performed under conditions of minimal light irradiation (dark room with dim red light). When fluorescence imaging is required, probes (e.g., SNAP surface 488, EGFP) are imaged before dTAT is, thereby minimizing the possible effect of light on endosomal release. For experiments performed with Cre and Hoxb4, cells are not imaged and not exposed to light (not at all for Hoxb4, 12 h after incubation for Cre).

[4] = system: HeLa cells; assay: Cell viability, SYTOX exclusion assay; assay type: cell-based
Procedure: as §1

[5] = system: cells; assay: Whole-genome microarray analysis after dTAT treatment; assay type: cell-based; conditions: 5 μM, 1 h; analysis immediately, 1 h or 24 h after treatment
Procedure: To better determine the effect of dTAT exposure on a cell, a whole-genome microarray analysis was performed on cells treated with 5 μM dTAT for 1 h to determine whether transcriptional patterns are influenced. Analysis was performed immediately, 1 h, or 24 h after dTAT treatment. […] The straight lines represent 2-fold intensity change cut-offs.

(CK(TMR)TAT)2 (CK(TMR)RKKRRQRRRG; also: dimer) [dTAT, dimer of two CK(TMR)-TAT monomers linked via a disulfide bond between the N-terminal cysteine residues]
binding to EGFP [1]: does not bind to EGFP | cell growth versus untreated cells [2]: grow at the same rate as untreated cells | cells in which cytosolic delivery is observed ([3]; 5 μM): more than 95% | concentration range with dramatic increase in cytosolic delivery of the peptide ([3]; HeLa cells, dTAT 1-5 μM): 2 to 5 µM | cellular localization of peptide fluorescence ([3]; above 5 μM): distributed in the cytosol and nucleus | cellular localization of peptide fluorescence ([3]; below 2 μM): punctate | effect on cell viability ([4]; 5 μM): does not affect cell viability | fraction of dead cells ([4]; 5 μM dTAT, 1 h incubation, 1, 24 and 48 h after incubation): below 5% | transcriptional response on a whole-genome scale [5]: minimal transcriptional perturbations
